Here are results for one molecule from US11033507B2, “Method of synthesis of silica vesicles and use thereof” (THE UNIVERSITY OF QUEENSLAND, priority 2013, dated 2021).

One data set relates to SCC25 cells. The data set is described as follows: MTT cell toxicity, SCC25. It counts as cell-based, human. As for the experimental part:
SCC25 cells were seeded in a 96-well plate at a density of 2×10^4 cells per well and cultured in 5% CO2 at 37° C. for 24 h. Then, free RNase A, SVs, RNase A loaded SVs and corresponding denatured samples were added to the cells in DMEM medium at an RNase A dosage of 4-16 μg/ml, and the cells were incubated in 5% CO2 at 37° C. for 24 and 72 h. Subsequently, MTT reagent (10 μl/well volume from 5 mg/mI solution in PBS) was added to each well, shaken for 10 seconds and then incubated at 37° C. for 4 h. The precipitants were collected following centrifugation for the above cell toxicity experiments after the removal of the supernatant. Then DMSO (100 μl) was added to each well to dissolve the formazan crystals and the optical density (OD) was recorded at 570 nm using a microplate reader (SpectraMax M5, Bio-Strategy, Ltd). Cells incubated in the absence of SVs and RNase A were used as the control. All the experiments were performed in triplicate for each group.
Another series of control groups was prepared after heat and acid denaturation of RNase A, including both free RNase A and RNase A loaded SVs. In the denaturation process, 50 μl of HCl (0.01M, pH 2.0) solution was added in to 1 mg of free RNase A or 6-9 mg of SVs (loaded with 1 mg RNase A). The mixtures were incubated at 65° C. for 40 min, cooled and centrifuged. NaOH (0.01M) solution was added dropwise into the mixtures until the pH reached ˜7, indicated by precise pH paper and used as a denatured RNase A group in the present experiment.
The stability and activity of RNase A loaded in hydrophobic modified SV was further investigated with acid and heat treatment. In a treatment procedure, 50 μl 0.01 M HCl (pH 2) was added to ˜1 mg RNase A loaded in SV. The mixture was kept in 65° C. for 40 min, then neutralized with 0.01 M NaOH solution (pH 12) until the pH reached 7. The final RNase A concentration was then diluted to 0.5 mg/ml. Free RNase A was also treated accordingly as a control group. […]

A further data set concerns HCT116 cells. Put plainly: Cell viability after acid and heat treatment, HCT116. It counts as cell-based. The settings on record: 24 to 72 h; samples acid and heat treated.
Another data set deals with RNase A (Bos taurus, UniProt P61823). The data set is described as follows: Thermal unfolding of RNase A by differential scanning calorimetry. Conditions: 10 mM PBS, RNase A 0.5 mg/ml, heating rate 60° C./h. It counts as physicochemical. As for the experimental part: The thermal unfolding of RNase A was measured by differential scanning calorimetry (DSC) in the range of 10−130° C. The DSC was carried out using a VP DSC microcalorimeter (MicroCal Company, USA) with a heating rate of 60° C./h. In a typical procedure, the RNase A/SV was suspended in 10 mM PBS solution with the RNase A concentration of 0.5 mg/ml. A reference suspension was also prepared using only SV the same concentration. The reference and sample suspension were injected in the corresponding cells for DSC measurements. The DSC curve of free RNase A was also obtained.
In general terms: Differential scanning calorimetry records heat flow against a reference as temperature is scanned.

B1: free RNase A: ribonuclease A, model therapeutical protein (protein, UniProt P61823 27-150, looked up)
Ribonuclease pancreatic: KETAAAKFERQHMDSSTSAASSSNYCNQMMKSRNLTKDRCKPVNTFVHESLADVQAVCSQKNVACKNGQTNCYQSYSTMSITDCRETGSSKYPNCAYKTTQANKHIIVACEGNPYVPVHFDASV
With B1, the “cellular toxicity / inhibition of SCC25 cells” value in the data set on SCC25 cells (24 to 72 h, samples acid and heat treated) is reported as “no inhibition”. Also, the “cytotoxicity to SCC25 cells” value was “no cytotoxicity” in the data set with SCC25 cells (free protein after denaturation) and “no cytotoxicity” in the data set with SCC25 cells (free protein, not denatured). Further, the “cellular toxicity / inhibition of HCT116 cells” value in the data set on HCT116 cells was “no inhibition”. Besides, in the data set with RNase A, the “midpoint temperature for the RNase A thermal unfolding (Tm)” value worked out at 63.6 °C.
